Experimental data as given in patent publication US20230348569A1.

How the values were obtained:
[1] = target: SARS-CoV-2 spike protein (S-wt, Wuhan-Hu-1, NCBI Accession Number MN908947.3) on VSV-SARS-CoV-2-S pseudoparticles (SARS-CoV-2) (UniProt P0DTC2); assay: cell-based or functional assay
[2] = target: MERS.mFc (mAb2663-L1) (MERS-CoV) (UniProt K9N5Q8); assay: Luminex bead binding, supernatant
[3] = target: Bt-MERS.hFc (mAb2664-L2) (MERS-CoV) (UniProt K9N5Q8); assay: Luminex bead binding, supernatant
[4] = target: MERS.hFc (mAb2664-L1) (MERS-CoV) (UniProt K9N5Q8); assay: Luminex bead binding, supernatant

mAb10934 (antibody)
neutralization potency IC50 [1]: 54.4 pM

mAb10936 (antibody)
neutralization potency IC50 [1]: 111 pM

mAb10987 (antibody)
MFI [2]: 196 MFI
MFI [3]: 172 MFI
MFI [4]: 235 MFI
neutralization potency IC50 [1]: 40.6 pM
